Measurements: US20240173442A1, “COMBINATION THERAPY” (Hoffmann-La Roche Inc., priority 2021, published 2024)

Tests used:
[1] = system: SC BxPC3 tumors; experiment: Protocol 185: biodistribution of 212Pb-DOTAM after CEA-split-DOTAM-VH/VL targeting T84.66 or CH1A1A; type: in vivo, SCID mice; conditions: 6 hours after injection
Description: (§1) The in vivo distribution of ^212Pb-DOTAM was assessed 6 hours after the radioactive injection.
(§2) Solid xenografts were established in each SCID mouse on study day 0 by SC injection of 5×10^6 cells (passage 27) in RPMI/Matrigel into the right flank. Twenty-two days after tumor cell injection, mice were sorted into experimental groups with an average tumor volume of 224 mm^3. The ^212Pb-DOTAM was injected on day 28 after inoculation, at which point the average tumor volume had reached 385 mm^3.
All mice were sacrificed and necropsied 6 hours after injection of ^212Pb-DOTAM, and the following organs and tissues harvested for measurement of radioactive content: blood, skin, spleen, pancreas, kidneys, liver, muscle, tail, and tumor. Collected tumors were split in two pieces: one was measured for radioactive content, and the other put in a cryomold containing Tissue-Tek® optimum cutting temperature (OCT) embedding medium, and put on dry ice for rapid freezing. Frozen samples in OCT were maintained at −80° C. before cryosectioning, immunofluorescence staining, and analysis using a Zeiss Axio Scope.A1 modular microscope.

[2] = system: SC BxPC3 tumors; experiment: Protocol 189: biodistribution of 212Pb-DOTAM after bi-paratopic (T84.66 and CH1A1A) CEA-split-DOTAM-VH/VL pairs; type: in vivo, SCID mice; conditions: 6 hours after injection
Description: This bi-paratopic combination precludes formation of the full Pb-DOTAM binder on soluble CEA that only expresses one of the two epitopes (e.g. T84.66), thereby mitigating potential adverse effects thereof, such as increased circulating radioactivity and associated radiation-induced toxicity, and decreased efficacy from competition with off-tumor targets.
as §1
as §2, with “31)” for “27)”, “Fourteen” for “Twenty-two”, “343” for “224”, “22” for “28”, “inoculation;” for “inoculation, at which point”, “557 mm^3 on day 21.” for “385 mm^3.”
All mice were sacrificed and necropsied 6 hours after injection of ^212Pb-DOTAM, and the following organs and tissues harvested for measurement of radioactive content: blood, skin, spleen, pancreas, kidneys, liver, muscle, tail, and tumor.

B1: CH1A1A: CEA-split-DOTAM-VH/VL pair targeting CH1A1A: P1AF0171 (VH-AST) plus P1AD8592 (VL) (antibody, V domains shown)
VH: QVQLVQSGAEVKKPGASVKVSCKASGYTFTEFGMNWVRQAPGQGLEWMGWINTKTGEATYVEEFKGRVTFTTDTSTSTAYMELRSLRSDDTAVYYCARWDFAYYVEAMDYWGQGTTVTVSS
VL: DIQMTQSPSSLSASVGDRVTITCKASAAVGTYVAWYQQKPGKAPKLLIYSASYRKRGVPSRFSGSGSGTDFTLTISSLQPEDFATYYCHQYYTYPLFTFGQGTKLEIK
modifications: split DOTAM-binding domains and constant regions lack entries
B1 was tested, and the “tumor accumulation of ^212Pb” value [1] was 40 % ID/g and the “tumor accumulation of ^212Pb” value [2] was 37 % ID/g.
